Reference: US20150086999

Biological target: Q13093
Test: estimated from residual CAM activity after 10 days at 4 C against enzyme concentration (dilution inactivation); self-association

B1: recombinant lipoprotein-associated phospholipase A2 (rLp-PLA2) expressed in HEK293 cells (protein)
chain: FDWQYINPVAHMKSSAWVNKIQVLMAAASFGQTKIPRGNGPYSVGCTDLMFDHTNKGTFLRLYYPSQDNDRLDTLWIPNKEYFWGLSKFLGTHWLMGNILRLLFGSMTTPANWNSPLRPGEKYPLVVFSHGLGAFRTLYSAIGIDLASHGFIVAAVEHRDRSASATYYFKDQSAAEIGDKSWLYLRTLKQEEETHIRNEQVRQRAKECSQALSLILDIDHGKPVKNALDLKFDMEQLKDSIDREKIAVIGHSFGGATVIQTLSEDQRFRCGIALDAWMFPLGDEVYSRIPQPLFFINSEYFQYPANIIKMKKCYSPDKERKMITIRGSVHQNFADFTFATGKIIGHMLKLKGDIDSNVAIDLSNKASLAFLQKHLGLHKDFDQWDCLIEGDDENLIPGTNINTTNQHIMLQNSSGIEKYN
Question: For B1, which “concentration at which half is monomer and half aggregate or oligomer” value is on record?
Answer: At the concentration at 2.5 µg/ml or 53 nM, roughly half of rLp-PLA2 is in monomer and half forms the aggregate or oligomer as estimated
